One assay concerns the target cell-surface KDR (human) (UniProt P35968). The assay can be described thus: cell-based or functional assay.
Assay [1] concerns the target KDR-alkaline phosphatase (AP) soluble fusion protein (human) (UniProt P35968). Briefly: competitive blocking ELISA: antibody pre-incubated with KDR-AP, then binding of KDR-AP to immobilised VEGF165, A405. (An ELISA detects its analyte on a solid surface through an enzyme-linked reagent.)
Assay [2] has the same target. The assay can be described thus: BIAcore SPR, KDR immobilized. In general terms: In SPR one partner is held on a chip, and binding of the other changes the refractive index at the surface.

Chain of KDR-alkaline phosphatase (AP) soluble fusion protein (human) (P35968 20-764): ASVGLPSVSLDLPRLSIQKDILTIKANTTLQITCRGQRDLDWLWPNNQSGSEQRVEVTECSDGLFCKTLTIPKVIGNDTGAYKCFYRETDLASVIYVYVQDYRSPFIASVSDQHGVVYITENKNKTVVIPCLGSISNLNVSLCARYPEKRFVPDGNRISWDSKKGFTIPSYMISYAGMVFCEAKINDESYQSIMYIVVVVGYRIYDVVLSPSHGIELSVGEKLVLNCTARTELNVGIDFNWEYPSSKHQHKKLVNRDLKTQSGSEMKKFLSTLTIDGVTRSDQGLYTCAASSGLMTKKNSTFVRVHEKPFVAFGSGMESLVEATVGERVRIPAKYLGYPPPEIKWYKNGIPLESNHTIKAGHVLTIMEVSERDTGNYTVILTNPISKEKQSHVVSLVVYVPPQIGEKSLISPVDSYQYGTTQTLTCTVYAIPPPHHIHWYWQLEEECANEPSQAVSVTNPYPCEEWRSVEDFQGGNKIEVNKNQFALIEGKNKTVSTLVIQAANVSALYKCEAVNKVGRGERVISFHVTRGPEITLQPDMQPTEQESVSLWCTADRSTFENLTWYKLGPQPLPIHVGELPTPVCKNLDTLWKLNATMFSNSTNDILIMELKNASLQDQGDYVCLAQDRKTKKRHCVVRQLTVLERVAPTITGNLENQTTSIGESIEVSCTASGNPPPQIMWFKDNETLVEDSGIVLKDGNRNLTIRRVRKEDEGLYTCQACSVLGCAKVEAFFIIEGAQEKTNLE
Chain of cell-surface KDR (human) (P35968 20-1356): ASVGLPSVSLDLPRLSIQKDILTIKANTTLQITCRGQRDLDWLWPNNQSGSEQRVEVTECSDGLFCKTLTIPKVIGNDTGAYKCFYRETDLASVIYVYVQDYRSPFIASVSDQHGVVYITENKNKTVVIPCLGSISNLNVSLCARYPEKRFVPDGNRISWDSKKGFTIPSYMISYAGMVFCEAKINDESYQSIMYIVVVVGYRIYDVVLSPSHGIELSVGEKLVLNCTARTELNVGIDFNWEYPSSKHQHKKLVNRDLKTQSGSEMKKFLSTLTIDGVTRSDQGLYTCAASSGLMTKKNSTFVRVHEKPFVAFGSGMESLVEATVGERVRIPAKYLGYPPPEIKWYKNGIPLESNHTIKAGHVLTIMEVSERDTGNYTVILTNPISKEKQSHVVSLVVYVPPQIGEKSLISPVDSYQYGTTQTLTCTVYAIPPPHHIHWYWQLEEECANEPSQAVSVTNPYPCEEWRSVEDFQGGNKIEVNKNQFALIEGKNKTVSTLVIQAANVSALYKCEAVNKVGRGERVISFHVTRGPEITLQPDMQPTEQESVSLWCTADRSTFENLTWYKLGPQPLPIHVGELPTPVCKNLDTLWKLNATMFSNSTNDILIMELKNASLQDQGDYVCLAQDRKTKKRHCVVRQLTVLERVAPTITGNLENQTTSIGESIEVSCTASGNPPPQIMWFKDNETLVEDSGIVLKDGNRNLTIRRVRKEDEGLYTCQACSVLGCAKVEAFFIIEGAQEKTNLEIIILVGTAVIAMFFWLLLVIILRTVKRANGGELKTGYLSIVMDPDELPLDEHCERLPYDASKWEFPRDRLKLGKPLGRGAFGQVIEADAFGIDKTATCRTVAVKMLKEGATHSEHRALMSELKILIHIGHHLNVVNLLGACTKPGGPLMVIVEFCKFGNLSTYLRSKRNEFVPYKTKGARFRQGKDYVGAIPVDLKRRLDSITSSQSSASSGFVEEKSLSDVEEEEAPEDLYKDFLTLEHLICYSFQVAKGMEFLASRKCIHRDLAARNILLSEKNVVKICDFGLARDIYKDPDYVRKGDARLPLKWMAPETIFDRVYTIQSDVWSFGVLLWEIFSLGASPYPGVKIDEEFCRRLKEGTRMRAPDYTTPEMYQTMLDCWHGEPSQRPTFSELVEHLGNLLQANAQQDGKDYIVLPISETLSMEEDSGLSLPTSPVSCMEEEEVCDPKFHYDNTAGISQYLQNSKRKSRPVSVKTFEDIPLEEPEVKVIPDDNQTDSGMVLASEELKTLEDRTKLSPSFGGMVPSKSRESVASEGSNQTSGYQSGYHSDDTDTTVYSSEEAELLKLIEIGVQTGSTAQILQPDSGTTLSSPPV

In general, Kd refers to the equilibrium constant for the complex coming apart. Read a high Kd as weaker binding. As usually defined, the koff is a measure of how fast the partners let go of each other. High values mean fast dissociation, low ones slow dissociation. By kon is commonly meant the second-order rate constant of association. IMC-1C11 (antibody) came in with an ED50 of inhibition of VEGF-stimulated [3H]-TdR incorporation in HUVEC with cell-surface KDR (human) of 1.5 nM. For the same substance, the IC50 (read off the curve) in assay [1] came out at 1 nM. In assay [2], this substance returned a Kd of 0.27 nM, a fold change of Kd against its Fab counterpart of 5 fold, an off-rate constant (koff) of 3.7e-05 s⁻¹ and an on-rate constant (kon) of 134000 M⁻¹ s⁻¹.

Values taken from patent publication US20050234225A1.
